Test results as given in IntAct's records for PubMed 26258305.

Experiments:
[1] = biological target: tif6a_arath TIFY6A (UniProt Q58G47)
[2] = biological target: tif6b_arath TIFY6B (UniProt Q9LVI4)
[3] = biological target: ti11b_arath TIFY11B (UniProt Q9C9E3)
[4] = biological target: ti11a_arath TIFY11A (UniProt Q9LDU5)
[5] = biological target: tif7_arath TIFY7 (UniProt Q8W4J8)
[6] = biological target: ti10b_arath TIFY10B (UniProt Q9S7M2)
[7] = biological target: tif5a_arath TIFY5A (UniProt Q8LBM2)
[8] = biological target: tif3b_arath TIFY3B (UniProt Q9C5K8)
[9] = biological target: tif3a_arath TIFY3A (UniProt Q9M246)
[10] = biological target: ti10a_arath TIFY10A (UniProt Q9LMA8)
[11] = biological target: tif9_arath TIFY9 (UniProt Q93ZM9)
tif9_arath TIFY9, sequence (Q93ZM9 whole entry): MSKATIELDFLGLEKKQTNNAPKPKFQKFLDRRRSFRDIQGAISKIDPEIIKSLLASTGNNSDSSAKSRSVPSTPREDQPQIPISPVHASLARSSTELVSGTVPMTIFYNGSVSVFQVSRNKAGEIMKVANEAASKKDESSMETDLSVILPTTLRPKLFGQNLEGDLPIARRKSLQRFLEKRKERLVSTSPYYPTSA

Transcription factor MYC3 (Arabidopsis thaliana (Mouse-ear cress)), Q9FIP9 W92A;D94A;Y97A, sequence (Q9FIP9 whole entry W92A/D94A/Y97A): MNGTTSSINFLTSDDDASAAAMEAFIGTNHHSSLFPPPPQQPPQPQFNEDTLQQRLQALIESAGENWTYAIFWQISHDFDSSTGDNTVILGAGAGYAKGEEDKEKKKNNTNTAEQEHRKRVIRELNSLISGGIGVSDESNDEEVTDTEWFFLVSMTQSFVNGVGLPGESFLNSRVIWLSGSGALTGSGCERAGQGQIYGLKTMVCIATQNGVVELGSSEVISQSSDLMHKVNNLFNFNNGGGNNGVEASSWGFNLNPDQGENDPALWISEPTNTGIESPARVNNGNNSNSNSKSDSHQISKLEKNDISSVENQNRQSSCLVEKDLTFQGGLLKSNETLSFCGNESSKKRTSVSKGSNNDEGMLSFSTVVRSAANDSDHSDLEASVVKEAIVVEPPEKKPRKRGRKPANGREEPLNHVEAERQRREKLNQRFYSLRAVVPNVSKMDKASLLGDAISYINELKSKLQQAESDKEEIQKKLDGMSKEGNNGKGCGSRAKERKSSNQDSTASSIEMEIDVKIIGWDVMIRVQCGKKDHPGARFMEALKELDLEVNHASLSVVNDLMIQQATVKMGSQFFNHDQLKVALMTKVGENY
tif7_arath TIFY7, sequence (Q8W4J8 whole entry): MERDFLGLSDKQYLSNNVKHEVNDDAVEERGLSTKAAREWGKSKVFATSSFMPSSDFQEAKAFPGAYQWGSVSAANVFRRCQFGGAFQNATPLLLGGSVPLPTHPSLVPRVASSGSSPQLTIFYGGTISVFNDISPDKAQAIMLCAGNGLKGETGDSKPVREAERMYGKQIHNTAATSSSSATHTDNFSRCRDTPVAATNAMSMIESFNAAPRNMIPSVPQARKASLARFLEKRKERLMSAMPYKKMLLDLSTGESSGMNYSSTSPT
tif5a_arath TIFY5A, sequence (Q8LBM2 whole entry): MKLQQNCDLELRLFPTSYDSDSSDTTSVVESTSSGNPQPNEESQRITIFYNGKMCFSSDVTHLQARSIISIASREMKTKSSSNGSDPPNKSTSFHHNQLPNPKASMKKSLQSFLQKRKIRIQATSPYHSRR
tif3a_arath TIFY3A, sequence (Q9M246 whole entry): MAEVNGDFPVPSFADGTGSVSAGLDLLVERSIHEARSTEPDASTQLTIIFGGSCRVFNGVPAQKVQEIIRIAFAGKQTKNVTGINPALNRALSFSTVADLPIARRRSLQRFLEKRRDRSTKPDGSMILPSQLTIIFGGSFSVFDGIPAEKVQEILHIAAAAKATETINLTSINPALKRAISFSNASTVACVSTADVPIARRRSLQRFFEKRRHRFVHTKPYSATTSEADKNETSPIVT
Transcription factor MYC3 (Arabidopsis thaliana (Mouse-ear cress)), Q9FIP9 D94N, sequence (Q9FIP9 whole entry D94N): as the sequence (Q9FIP9 whole entry W92A/D94A/Y97A) above, with A92W, A94N, A97Y counted along it
Transcription factor MYC3 (Arabidopsis thaliana (Mouse-ear cress)), Q9FIP9 F151A;L152A, sequence (Q9FIP9 whole entry F151A/L152A): as the sequence (Q9FIP9 whole entry W92A/D94A/Y97A) above, with A92W, A94D, A97Y, F151A, L152A counted along it
ti11a_arath TIFY11A, sequence (Q9LDU5 whole entry): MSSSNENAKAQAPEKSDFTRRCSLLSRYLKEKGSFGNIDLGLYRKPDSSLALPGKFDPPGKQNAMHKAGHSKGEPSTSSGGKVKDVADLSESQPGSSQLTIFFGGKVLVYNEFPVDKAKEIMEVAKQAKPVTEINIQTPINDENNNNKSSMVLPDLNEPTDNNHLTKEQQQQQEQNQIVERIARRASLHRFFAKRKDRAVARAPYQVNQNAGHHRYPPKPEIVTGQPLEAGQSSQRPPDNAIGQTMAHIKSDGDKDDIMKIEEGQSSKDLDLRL
tif6b_arath TIFY6B, sequence (Q9LVI4 whole entry): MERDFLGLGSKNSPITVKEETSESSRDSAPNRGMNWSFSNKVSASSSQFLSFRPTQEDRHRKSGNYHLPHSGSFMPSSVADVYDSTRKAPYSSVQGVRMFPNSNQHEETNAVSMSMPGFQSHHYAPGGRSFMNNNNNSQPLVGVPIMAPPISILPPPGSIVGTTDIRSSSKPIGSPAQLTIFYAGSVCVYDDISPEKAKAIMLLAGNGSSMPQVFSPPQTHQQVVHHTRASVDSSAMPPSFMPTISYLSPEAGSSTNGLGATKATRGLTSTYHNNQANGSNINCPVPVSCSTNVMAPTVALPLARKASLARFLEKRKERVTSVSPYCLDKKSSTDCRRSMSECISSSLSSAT
Transcription factor MYC3 (Arabidopsis thaliana (Mouse-ear cress)), Q9FIP9 D94A;Y97A, sequence (Q9FIP9 whole entry D94A/Y97A): as the sequence (Q9FIP9 whole entry W92A/D94A/Y97A) above, with A92W counted along it
tif3b_arath TIFY3B, sequence (Q9C5K8 whole entry): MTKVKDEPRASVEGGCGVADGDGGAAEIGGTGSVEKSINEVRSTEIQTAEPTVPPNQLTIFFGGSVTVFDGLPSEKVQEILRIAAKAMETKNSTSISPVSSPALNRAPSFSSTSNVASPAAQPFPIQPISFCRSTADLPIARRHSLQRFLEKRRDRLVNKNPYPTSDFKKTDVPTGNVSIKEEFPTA
ti10b_arath TIFY10B, sequence (Q9S7M2 whole entry): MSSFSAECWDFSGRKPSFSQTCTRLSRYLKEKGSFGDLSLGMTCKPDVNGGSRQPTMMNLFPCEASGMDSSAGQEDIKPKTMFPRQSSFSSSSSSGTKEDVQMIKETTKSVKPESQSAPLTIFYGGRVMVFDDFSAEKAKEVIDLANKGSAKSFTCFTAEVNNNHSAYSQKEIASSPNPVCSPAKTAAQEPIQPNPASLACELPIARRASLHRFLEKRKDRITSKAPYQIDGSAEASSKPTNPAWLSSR
Transcription factor MYC3 (Arabidopsis thaliana (Mouse-ear cress)), Q9FIP9 F151A, sequence (Q9FIP9 whole entry F151A): as the sequence (Q9FIP9 whole entry W92A/D94A/Y97A) above, with A92W, A94D, A97Y, F151A counted along it

Row | Substance | effect of a mutation on the interaction [1] | effect of a mutation on the interaction [2] | effect of a mutation on the interaction [3] | effect of a mutation on the interaction [4] | effect of a mutation on the interaction [5] | effect of a mutation on the interaction [6] | effect of a mutation on the interaction [7] | effect of a mutation on the interaction [8] | effect of a mutation on the interaction [9] | effect of a mutation on the interaction [10] | effect of a mutation on the interaction [11]
1 | Transcription factor MYC3 (Arabidopsis thaliana (Mouse-ear cress)), Q9FIP9 D94A | disrupting interaction strength |  |  |  |  |  |  |  |  |  | 
2 | Transcription factor MYC3 (Arabidopsis thaliana (Mouse-ear cress)), Q9FIP9 D94A;Y97A | decreasing interaction strength | decreasing interaction strength | decreasing interaction strength | decreasing interaction strength | decreasing interaction strength |  |  |  |  |  | 
3 | Transcription factor MYC3 (Arabidopsis thaliana (Mouse-ear cress)), Q9FIP9 D94N | disrupting interaction strength | disrupting interaction strength |  |  | disrupting interaction strength |  |  |  |  |  | 
4 | Transcription factor MYC3 (Arabidopsis thaliana (Mouse-ear cress)), Q9FIP9 F151A | disrupting interaction strength | disrupting interaction strength | decreasing interaction strength | disrupting interaction strength | decreasing interaction strength | decreasing interaction strength | decreasing interaction strength | disrupting interaction strength | decreasing interaction strength | decreasing interaction strength | decreasing interaction strength
5 | Transcription factor MYC3 (Arabidopsis thaliana (Mouse-ear cress)), Q9FIP9 F151A;L152A | disrupting interaction strength | disrupting interaction strength | disrupting interaction strength | disrupting interaction strength | disrupting interaction strength | disrupting interaction strength | disrupting interaction strength | disrupting interaction strength | disrupting interaction strength | disrupting interaction strength | disrupting interaction strength
6 | Transcription factor MYC3 (Arabidopsis thaliana (Mouse-ear cress)), Q9FIP9 F151A;L152A;M155A | disrupting interaction strength | disrupting interaction strength | disrupting interaction strength | disrupting interaction strength | disrupting interaction strength | disrupting interaction strength | disrupting interaction strength | disrupting interaction strength | disrupting interaction strength | disrupting interaction strength | disrupting interaction strength
7 | Transcription factor MYC3 (Arabidopsis thaliana (Mouse-ear cress)), Q9FIP9 F151A;M155A | disrupting interaction strength | disrupting interaction strength | decreasing interaction strength | disrupting interaction strength | disrupting interaction strength | disrupting interaction strength | disrupting interaction strength | disrupting interaction strength | disrupting interaction strength | decreasing interaction strength | decreasing interaction strength
8 | Transcription factor MYC3 (Arabidopsis thaliana (Mouse-ear cress)), Q9FIP9 L152A | disrupting interaction strength | disrupting interaction strength | decreasing interaction strength | disrupting interaction strength | disrupting interaction strength | decreasing interaction strength |  | disrupting interaction strength | decreasing interaction strength | decreasing interaction strength | decreasing interaction strength
9 | Transcription factor MYC3 (Arabidopsis thaliana (Mouse-ear cress)), Q9FIP9 L152A;M155A | disrupting interaction strength | disrupting interaction strength | disrupting interaction strength | disrupting interaction strength | disrupting interaction strength | disrupting interaction strength | disrupting interaction strength | disrupting interaction strength | disrupting interaction strength | disrupting interaction strength | disrupting interaction strength
10 | Transcription factor MYC3 (Arabidopsis thaliana (Mouse-ear cress)), Q9FIP9 M155A | disrupting interaction strength | disrupting interaction strength | decreasing interaction strength | decreasing interaction strength | disrupting interaction strength |  |  | disrupting interaction strength |  |  | 
11 | Transcription factor MYC3 (Arabidopsis thaliana (Mouse-ear cress)), Q9FIP9 W92A | disrupting interaction strength |  |  |  |  |  |  |  |  |  | 
12 | Transcription factor MYC3 (Arabidopsis thaliana (Mouse-ear cress)), Q9FIP9 W92A;D94A | disrupting interaction strength |  |  |  |  |  |  |  |  |  | 
13 | Transcription factor MYC3 (Arabidopsis thaliana (Mouse-ear cress)), Q9FIP9 W92A;D94A;Y97A | disrupting interaction strength | disrupting interaction strength | disrupting interaction strength | disrupting interaction strength | disrupting interaction strength | disrupting interaction strength | disrupting interaction strength | disrupting interaction strength | disrupting interaction strength | disrupting interaction strength | disrupting interaction strength
14 | Transcription factor MYC3 (Arabidopsis thaliana (Mouse-ear cress)), Q9FIP9 W92A;Y97A | disrupting interaction strength | disrupting interaction strength | disrupting interaction strength | disrupting interaction strength | disrupting interaction strength | disrupting interaction strength | decreasing interaction strength | disrupting interaction strength | decreasing interaction strength | decreasing interaction strength | decreasing interaction strength
15 | Transcription factor MYC3 (Arabidopsis thaliana (Mouse-ear cress)), Q9FIP9 Y97A | disrupting interaction strength |  |  |  |  |  |  |  |  |  | 
